Substrate in the data set: C[C@H](O)C(=O)O
In words: cells, lysate or membranes. The following applies: pH 7.3, 37 °C, 2 min uptake, 1-100 µM L-lactate, labelled compound (14C tracer spike).

B1: Slc16a13 (SLC16A13/MCT13) (Mus musculus) (protein)
chain: MVRRAEPPDGGWGWMVVLSAFFQSALVFGVLRSFGVFFVEFVAAFEEQAARVSWIASIGIAVQQFGSPIGSALSTKLGPRPVVMTGGILAALGMLLASFATSLTHLYLSIGLLSGSGWALTFTPTMACLSRYFSQRRSLAMGLALTGVGISSFAFAPLFQWLINNYAWRGALLLVSALSLHLMACGALLRPLSLTEDAAVGGPGAQITSLLRHGPFLRYTAALTLINTGFFIPYVHLVAHLQDLGWDPLPAAFLLSVAAVSDLVGRVASGWLGDAVPGPVARLLMLWTTLTGVSLALFPVAQASSTLVVLAVAYGFTSGALTPVAFSVLPELVGTGRIYCGMGLVQMIESIGGLLGAPLSGYLRDVTGNYTASFVVAGAFLLAGSGVLLTLPHFFSCISVSTSRPQDLVIEASDTKIPLPKEEGLGEN
Turning to B1, the Km amounted to 0.47 ± 0.35 µM.

The record behind these values is PMC8249653.
